This note sets out measurements from patent publication US20230279089A1 (GlaxoSmithKline, published 2023).

Common to all, as to experiment: cell-based or functional assay
The target in assay [1] is T1, Cyno TLL1 (cyno, UniProt A0A1D5QYV0 148-1013 (rhesus entry)).
T1 sequence: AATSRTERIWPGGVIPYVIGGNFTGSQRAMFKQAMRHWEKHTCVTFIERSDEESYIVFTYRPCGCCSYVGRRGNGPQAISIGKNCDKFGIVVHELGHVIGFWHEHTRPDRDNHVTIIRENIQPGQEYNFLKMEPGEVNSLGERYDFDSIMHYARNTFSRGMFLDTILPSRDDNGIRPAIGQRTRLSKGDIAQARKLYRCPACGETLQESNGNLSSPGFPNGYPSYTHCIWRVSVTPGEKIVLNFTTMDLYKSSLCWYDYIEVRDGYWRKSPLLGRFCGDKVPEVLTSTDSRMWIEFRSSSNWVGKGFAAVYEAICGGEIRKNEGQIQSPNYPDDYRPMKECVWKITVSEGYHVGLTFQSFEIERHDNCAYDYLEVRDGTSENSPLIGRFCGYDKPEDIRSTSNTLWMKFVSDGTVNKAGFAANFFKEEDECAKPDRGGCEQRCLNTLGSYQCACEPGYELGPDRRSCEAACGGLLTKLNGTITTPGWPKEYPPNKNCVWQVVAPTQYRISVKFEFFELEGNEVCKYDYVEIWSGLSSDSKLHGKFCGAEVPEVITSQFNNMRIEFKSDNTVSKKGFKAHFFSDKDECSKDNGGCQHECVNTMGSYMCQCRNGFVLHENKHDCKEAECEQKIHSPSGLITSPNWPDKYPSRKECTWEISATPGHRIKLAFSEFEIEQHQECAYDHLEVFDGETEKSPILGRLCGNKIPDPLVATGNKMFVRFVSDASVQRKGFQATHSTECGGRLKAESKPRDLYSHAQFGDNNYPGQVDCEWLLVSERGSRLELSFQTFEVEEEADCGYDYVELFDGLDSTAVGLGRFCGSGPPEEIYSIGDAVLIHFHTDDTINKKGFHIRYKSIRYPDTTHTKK

Assay [2] addresses T2, Mouse TLL1 (mouse, UniProt Q62381 148-1013, limits assumed).
T2 sequence (looked up): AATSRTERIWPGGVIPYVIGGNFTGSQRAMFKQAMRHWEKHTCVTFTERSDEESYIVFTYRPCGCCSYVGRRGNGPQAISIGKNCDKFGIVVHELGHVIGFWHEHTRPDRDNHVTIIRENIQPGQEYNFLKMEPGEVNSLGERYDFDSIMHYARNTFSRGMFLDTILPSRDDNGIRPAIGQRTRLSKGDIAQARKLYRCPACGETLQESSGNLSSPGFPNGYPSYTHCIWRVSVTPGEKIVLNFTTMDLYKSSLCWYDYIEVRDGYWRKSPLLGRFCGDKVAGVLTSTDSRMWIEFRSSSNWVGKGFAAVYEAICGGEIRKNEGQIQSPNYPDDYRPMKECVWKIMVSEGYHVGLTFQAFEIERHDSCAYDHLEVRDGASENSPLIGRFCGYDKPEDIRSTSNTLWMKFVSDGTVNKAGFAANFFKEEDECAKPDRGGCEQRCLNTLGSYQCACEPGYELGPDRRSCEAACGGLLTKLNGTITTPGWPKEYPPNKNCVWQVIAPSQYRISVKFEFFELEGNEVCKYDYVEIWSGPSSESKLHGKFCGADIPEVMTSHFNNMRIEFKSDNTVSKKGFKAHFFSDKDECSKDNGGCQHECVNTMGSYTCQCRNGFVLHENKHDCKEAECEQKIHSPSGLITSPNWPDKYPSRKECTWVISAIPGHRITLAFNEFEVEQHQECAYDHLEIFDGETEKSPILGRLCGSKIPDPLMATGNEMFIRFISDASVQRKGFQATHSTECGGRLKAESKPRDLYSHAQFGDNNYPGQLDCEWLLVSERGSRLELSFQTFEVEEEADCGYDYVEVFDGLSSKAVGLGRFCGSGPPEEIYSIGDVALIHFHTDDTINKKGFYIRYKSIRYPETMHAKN

In assay [3] the target is T3, Human TLL2 (human, UniProt Q9Y6L7 150-1015, limits assumed).
T3 sequence (looked up): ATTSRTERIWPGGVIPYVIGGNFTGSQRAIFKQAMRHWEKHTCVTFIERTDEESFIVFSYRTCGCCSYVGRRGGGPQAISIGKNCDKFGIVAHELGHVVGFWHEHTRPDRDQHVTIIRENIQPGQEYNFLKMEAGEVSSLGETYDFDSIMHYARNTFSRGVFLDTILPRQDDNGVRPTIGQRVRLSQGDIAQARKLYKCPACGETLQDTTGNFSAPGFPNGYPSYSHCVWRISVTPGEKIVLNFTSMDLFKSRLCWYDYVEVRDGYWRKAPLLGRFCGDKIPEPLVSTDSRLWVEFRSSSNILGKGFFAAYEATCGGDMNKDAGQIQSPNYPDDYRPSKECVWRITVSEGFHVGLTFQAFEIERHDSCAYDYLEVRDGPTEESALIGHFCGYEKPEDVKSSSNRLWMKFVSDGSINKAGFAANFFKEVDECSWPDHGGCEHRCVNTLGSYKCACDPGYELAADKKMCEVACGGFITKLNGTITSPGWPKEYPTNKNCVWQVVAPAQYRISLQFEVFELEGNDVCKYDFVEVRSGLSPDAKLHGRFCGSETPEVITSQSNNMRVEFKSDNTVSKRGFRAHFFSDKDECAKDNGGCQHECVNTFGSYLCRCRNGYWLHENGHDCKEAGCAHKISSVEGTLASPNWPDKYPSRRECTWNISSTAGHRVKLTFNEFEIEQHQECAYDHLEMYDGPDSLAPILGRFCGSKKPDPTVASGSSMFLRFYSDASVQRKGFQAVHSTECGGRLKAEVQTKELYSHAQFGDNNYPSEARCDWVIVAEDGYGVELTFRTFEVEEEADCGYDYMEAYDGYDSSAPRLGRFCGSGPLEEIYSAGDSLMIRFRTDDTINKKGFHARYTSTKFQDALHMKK

Where a chain is given by its changes, count along the chain named.

B1: 13Y039-127G03-2890 (antibody, human IgG1, kappa, V domains shown)
VH: QVQLVQSGAEVKKPGSSVKVSCKASGGTFSSYAISWVRQAPGQGLEWMGGIIPVFGSAYYAQKFQGRVTITADESTSTAYMELSSLRSEDTAVYYCAGEGRAYYGSESYDDSDYMDVWGKGTTVTVSS
VL: DIQMTQSPSSLSASVGDRVTITCQASQDISNYLNWYQQKPGKAPKLLIYDASNLETGVPSRFSGSGSGTDFTFTISSLQPEDIATYYCQQADIFPLTFGGGTKVEIKR
notes: Fully human IgG1 LAGA, kappa; HEK expressed
On to B1, for which, in assay [1], the “IC50, FRET enzyme activity, 750 pM biotinylated cynoTLL-1” value (shortened to “IC50 … 750 pM biotinylated cynoTLL-1”) was found to be 0.22 nM. The “IC50, FRET enzyme activity, 800 pM biotinylated mTLL-1” value (“IC50 … 800 pM biotinylated mTLL-1” below) in assay [2] amounted to 0.88 nM. The “IC50, FRET enzyme activity, 500 pM huTLL-2” value (shortened to “IC50 … 500 pM huTLL-2”) in assay [3] was 0.15 nM.

B2: 13Y039-152B02-2940 (antibody, human IgG1, kappa, V domains shown)
VH: QVQLVQSGAEVKKPGSSVKVSCKASGGTFSSDAISWVRQAPGQGLEWMGGIITNFGTATYAQKFQGRVTITADESTSTAYMELSSLRSEDTAVYYCARDVGVQLVYHGAFDIWGQGTMVTVSS
VL: B1 VL with E55A, A91D, I93Y, F94L, L96I
notes: as for B1
Turning to B2, in assay [1], the “IC50 … 750 pM biotinylated cynoTLL-1” value was found to be 60 pM. In addition, the “IC50 … 800 pM biotinylated mTLL-1” value in assay [2] came out at 0.1 nM. In addition, in assay [3], the “IC50 … 500 pM huTLL-2” value came out at 0.28 nM.

B3: 13Y039-152B02-2948 (antibody, human IgG1, kappa, V domains shown)
VH: B2 VH with S31D, D32F, T53P, N54I, F55Y, T59S, Q65L
VL: B1 VL with E55A, A91D, I93Y, F94L, L96I
notes: as for B1
Regarding B3, the “IC50 … 750 pM biotinylated cynoTLL-1” value in assay [1] came to 70 pM. Moreover, in assay [2], the “IC50 … 800 pM biotinylated mTLL-1” value is 0.11 nM. Further, the “IC50 … 500 pM huTLL-2” value in assay [3] is 0.86 nM.

B4: 13Y039-152B02-2935 (antibody, human IgG1, kappa, V domains shown)
VH: B2 VH with S31E, D32S, T53P, N54T, G56D, A58T, T59N
VL: B1 VL with E55A, A91D, I93Y, F94L, L96I
notes: as for B1
For B4, in assay [1], the “IC50 … 750 pM biotinylated cynoTLL-1” value turned out to be 0.11 nM. The “IC50 … 800 pM biotinylated mTLL-1” value in assay [2] is 70 pM. In addition, in assay [3], the “IC50 … 500 pM huTLL-2” value worked out at 0.2 nM.

B5: 13Y039-4B06-4324 (antibody, human IgG1, kappa, V domains shown)
VH: QVQLVQSGAEVKKPGASVKVSCKASGYTFRGYYMSWVRQAPGQGLEWMGWINPMSGETNYAQKFQGRVTMTRDTSISTAYMELSRLRSDDTAVYYCARDTGELDGMNWYFDLWGRGTLVTVSS
VL: EIVLTQSPATLSLSPGERATLSCRASQSVSSYLAWYQQKPGQAPRLLIYDASNRATGIPARFSGSGSGTDFTLTISSLEPEDFAVYYCQQSDSWPPTFGGGTKVEIKR
notes: as for B1
Turning to B5, the “IC50 … 750 pM biotinylated cynoTLL-1” value in assay [1] came to 70 pM. Besides, in assay [2], the “IC50 … 800 pM biotinylated mTLL-1” value was found to be 0.1 nM. Besides, the “IC50 … 500 pM huTLL-2” value in assay [3] worked out at 40 pM.

B6: 13Y039-4B06-4351 (antibody, human IgG1, kappa, V domains shown)
VH: B5 VH with R30S, M54N, N59F
VL: B5 VL
notes: as for B1
Consider B6, for which the “IC50 … 750 pM biotinylated cynoTLL-1” value in assay [1] turned out to be 0.13 nM. The “IC50 … 800 pM biotinylated mTLL-1” value in assay [2] turned out to be 0.14 nM. Moreover, the “IC50 … 500 pM huTLL-2” value in assay [3] stood at 30 pM.

B7: 13Y039-4B06-4327 (antibody, human IgG1, kappa, V domains shown)
VH: B5 VH with R30P, S35T, W50N, M54N, E57W
VL: B5 VL
notes: as for B1
On to B7, for which the “IC50 … 750 pM biotinylated cynoTLL-1” value in assay [1] is 20 pM. In addition, the “IC50 … 800 pM biotinylated mTLL-1” value in assay [2] was 40 pM. The “IC50 … 500 pM huTLL-2” value in assay [3] stood at 30 pM.

B8: 13Y039-4B06-4328 (antibody, human IgG1, kappa, V domains shown)
VH: B5 VH with R30H, S35N, M54L
VL: B5 VL
notes: as for B1
Turning to B8, the “IC50 … 750 pM biotinylated cynoTLL-1” value in assay [1] was 70 pM. Further, the “IC50 … 800 pM biotinylated mTLL-1” value in assay [2] stood at 70 pM. Moreover, the “IC50 … 500 pM huTLL-2” value in assay [3] worked out at 20 pM.

B9: 13Y039-4B06-4376 (antibody, human IgG1, kappa, V domains shown)
VH: B5 VH with R30M, S35N, M54S
VL: B5 VL
notes: as for B1
On to B9, for which, in assay [1], the “IC50 … 750 pM biotinylated cynoTLL-1” value worked out at 0.15 nM. Besides, the “IC50 … 800 pM biotinylated mTLL-1” value in assay [2] worked out at 0.16 nM. Besides, the “IC50 … 500 pM huTLL-2” value in assay [3] came out at 90 pM.

B10: 13Y039-4B06-4325 (antibody, human IgG1, kappa, V domains shown)
VH: B5 VH with R30W, M54Q
VL: B5 VL
notes: as for B1
With B10, the “IC50 … 750 pM biotinylated cynoTLL-1” value in assay [1] is 50 pM. Also, the “IC50 … 800 pM biotinylated mTLL-1” value in assay [2] was found to be 70 pM. Further, in assay [3], the “IC50 … 500 pM huTLL-2” value was 50 pM.

B11: 13Y039-4B06-4364 (antibody, human IgG1, kappa, V domains shown)
VH: B5 VH with M54N, N59I
VL: B5 VL
notes: as for B1
Take B11: the “IC50 … 750 pM biotinylated cynoTLL-1” value in assay [1] was found to be 0.11 nM. Besides, in assay [2], the “IC50 … 800 pM biotinylated mTLL-1” value amounted to 0.13 nM. For the same molecule, in assay [3], the “IC50 … 500 pM huTLL-2” value stood at 50 pM.

B12: 13Y039-4B06-4348 (antibody, human IgG1, kappa, V domains shown)
VH: B5 VH with R30G, M54N, N59Y
VL: B5 VL
notes: as for B1
Consider B12, for which the “IC50 … 750 pM biotinylated cynoTLL-1” value in assay [1] is 0.18 nM. The “IC50 … 800 pM biotinylated mTLL-1” value in assay [2] was 0.12 nM. Besides, the “IC50 … 500 pM huTLL-2” value in assay [3] is 40 pM.

B13: 13Y039-4B06-4373 (antibody, human IgG1, kappa, V domains shown)
VH: B5 VH with G31S, S35N, W50I, M54S, N59S, I76T, A79V, R85S, D89E
VL: B5 VL
notes: as for B1
Take B13: in assay [1], the “IC50 … 750 pM biotinylated cynoTLL-1” value was determined as 80 pM. Moreover, the “IC50 … 800 pM biotinylated mTLL-1” value in assay [2] amounted to 0.13 nM. In addition, the “IC50 … 500 pM huTLL-2” value in assay [3] is 0.1 nM.
